Results published in the nanobody polyreactivity screen of Harvey et al. (2022).

Assay: yeast display, Sf9 membrane polyspecificity reagent, FACS + sequencing; frameworks hold sequencing errors
In short: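 Sorting gates, low and high (top ~1%), were placed on anti-HA fluorescence to track expression and on streptavidin fluorescence to track reagent binding. A clone's polyreactivity label is taken from the gate it came out of. The reagent was 10% biotinylated, detergent-solubilized Sf9 membrane, applied for 1 hour at 4 °C to galactose-induced yeast display cells.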

| Sequence | polyreactivity (PSR sort gate) |
| --- | --- |
| QVQLVESGGGLVQAGCSLRLSCAASGRTFRSDNSMGWYRQSPGKQRELVAAISQGGGTYYADSVKGRFTISRDNAKNTVYLLMNSLIPEDTAVYYCARDAFYADPSLWYYTYDFWGQGTQETVSS | low polyreactivity |
| QVQLVESGGGLVQAGGSLRLSCAASGSIFQSYSMGWYRQAPGKERELVAAISRGGSTYYADSVKGRFTISRDNAKNTVYLQMNSLKPEDTAVYYCAAGSGGGKYLYYYWGQGTQVTVSS | low polyreactivity |
| QVQLVESGGGLVQAGGSLRLSCAASGRIYTYYTMGWYRQAPGKERELVAAITVRGGRTYYADSVKGRFTISRDNAKNTDYLQMNSLKPEDTAVYYCAARGLVRSYDYWGQVTQVTVSS | high polyreactivity |
| QVQLVESGGGLVQAGGSLRLSCAASGFIFDDNAMGWYRQAPGKERELVAAITSGGGSTYYADSVKGRFTISRDNAKNTVYLQMNSLKQEDTAVYYCNAVPSQHDEFDSWGQGTQVTVSS | low polyreactivity |
| QVQLVESGGGLVQAGGSLRLSCAAYGSIFKWYTMGWYRQAPGKERELVADINWNGGRTYYADSVKGRFTISRDYAKNTVYLQMNSLKPEDTAVFDCAASRGDYWGQGTQVTVSS | high polyreactivity |
| QVQLVESGGCLVQAGGSLRLSCAASGSTFKIYAMGWYRQAPWKERELVAAISWRGGRTYYADSVKGRFTISRDNAKNTVYLQMNSLKPEDTAVYYCDKGTRQGLEFWGQGTQVTVSS | high polyreactivity |
| QVQLVESGGGLVQAGGSLRLSCAASGSIFRGYTMGWYRQAPGKERELVAAISRSGGSTYYADSVKGRFTISRDNAKNTVYIQMNSLKPEDTAVYYCNVVYFVTTSPGYDYWGQGTQVTVSS | high polyreactivity |
| KVQLVESGGGLVQAGGRLRISCAASGRICYSNVMGWSRQAPGKERELVAAIFSGGSTYYADSVKGRFTISRDNAKNTVYLQMNSLKPEDTAVYDCAADYYYPFDYWGQGTQVTVSS | low polyreactivity |
| QVQLVESGGGLVQAGGSLRLSCAASGRTFALYAMGWYRHAPGKERELVASISWRGGSTYYADSVKGRFTISRDNAKNTVYLQMNSLKPEDTAVYYCAADTWSYGPLNYRLEYWGQGTQVTVSS | low polyreactivity |
| QVQLVESGGGLDQAGGSLRLSCDASGSSFRKYAMVLYRQAPGKEREFVAAISSSGGRTYYADSVKGRFTISRDNAKYTVYLQMNSLKPEDTSVYYFADDVYSDRYDYWGQGTQVTVSS | high polyreactivity |
| QVHLVESGGGLVQAGGSLRLICAASGISFLAYAMGCYRHAPRKERELVAAISTDGGSTYYADSVKGRFTISRDNAKNTVYLQMNSLKPVYTAVYYCAAKQRYVRTRGMDYWGQGTQVTVSS | high polyreactivity |
| HVQLVESGGGLVQAGGSLRLSCAASGFIFDVNAMGWYRQAPGKERELVAVIRGSGGSTYYADSVKGRFTISRDNAKNTVYLQMNSLKPADTAVYYCAAAVNHVAYHYNYWGQGTQVTVSS | high polyreactivity |
| QVQLVESGGGLVQAGGSLRLSCAASGRTSGFNTMGWYRQAPGKERELVAAISFSGGSTYYADSVKGRFTISRDNAKNTVYLQMNSLKPEDTAVYYCNALYRYLYRSGDYWGQGTQVTVSS | low polyreactivity |
| QVQLVESGGGLVQAGGSLRLSCAASGYIIGRYVMGWYRQAPGNERELVAAITASGGSTNYADSVKGRFTISRDNAKNTVYLQMNSLKPEDTAVYYCAADYSWYYFDFEYWGQGTQVTVSS | high polyreactivity |
| QVQLVESGGGLVQAGGSLRLSCAASGRTFYANAMGWYRQAPGKERELVAAISTGGDGTYYADSVKGRFTISRDNAKNTVYLQMNSLKPEDTAVYYCAVRHRASGILYDYWGQGTQVTVSS | low polyreactivity |
| QVQLVESWGGLVQAGGSLRLSCAASGIIFQNYDMGWYRQARGKERELVAAITGSGGSTYYADSVKGRFTISRDNAKNTVYLQMNSLKPEDTAVYYCNAVWEYYGKSDYWGQGTQVTVSS | low polyreactivity |

| Sequence | polyreactivity (PSR sort gate) |
| --- | --- |
| QVQLVESGGGLVQAGGSLRLSCAASGRILRYYAMGWYRQAPGKELELVASISRGGSTYYADSVKGRFTISRDNAKNTVYLQMNSLKPEDTAVYYCATEVRRSTREFGYWGQGTQVTVSS | high polyreactivity |
| QVQLVESGGGLVQAGGSLRLSCAASGSTFNINAMGWYRQAPGKERELVAAISSRGGSTYYADSVKGRFTISRDNAKNTVYLQMNSLKPEDTAVYYCAASPRRVENAGRVRLYYWGQGTQVTVSS | high polyreactivity |
| QVQLVESGGGLVQAGGSLRLSCAASGSIFYRYAMGWYRQAPGKERELVAAIRWSGGSTYYADSVKGRFTISRDNAKNTVYLQMNSLKPEDTAVYYCATEVSSGGYWSWYGYWGQGTQVTVSS | low polyreactivity |
| QVQLVESGGGLVQAGGSLRLSCAASGSIFPGYTMGWYRQAPGKERELVAAISRRGGSTYYADSVKGRITISRDNAKNSVYLQMNSLKPEDTAVYYCAKVPDYRFEYWGQGTQVTVSS | high polyreactivity |
| QVQLVESAGGLVQAGGSLRLSCAASGRTFYSYAMGWSRQAPGKEREFVAAITKSGGSTYYADSVKGRFTISRDNAKNTVYLQMNSLKPEDTAVYYCAAGLVATFSRPGRASYRYNYWGQGTQVTVSS | high polyreactivity |
| QVQLVESGGGLVQAGGSLRLSCAASGSTLVTNAMGWYRQAPGKERELVAAITFSGGTTYYADSVKGLFTISRDNAKNTVYLQMNSLKPEDTAVYYCAAEIWLEYVGYDYWGQGTQVTLSS | high polyreactivity |
| QVQLVESVVGLDQAGGSHRLSCAASGSIFATYAMGWYRHAPGKERELVAAITTRGGSTYYADSVKGRFTISRDNAKNTVYLLMYSLKPEDTAVYFCNALRWWSYGLNYCGQGTQVTVSS | high polyreactivity |
| QVQLVESGGGLFQAGGNLRLSCAASGRTFYPNAMGWYRQAPGKERELVAGIRSSGDSTYYADSVKVRFTISRDNAKNTVYFQMNSLKPEDTAVYYCNRDLTPSYDYWGQGSQVTVSS | low polyreactivity |
| QVQLVESGGGLVQAGGSLRLSCAASGSIFTRNAMGWYITAPGKEREFVAAISSSGVSTYYADSVKGRLTISRDNAKNTVYLQMNSLKPEDTAVYYCAARWGTKSGRYDYWGQGTQVTVSS | high polyreactivity |
| QVQLVETGGGLVQAGGSLRLSCAASGFTFSYYAMGWYRQAPGKERELVAAISWSGGSTYYADSVKGRFTISRDNAKNTVYLLMNSLKPEDTAVYYSNKVGRAIGPYDYWGQGTQVTVSS | high polyreactivity |
| QVQLVESGGGLVQAGGSLRLSCADSGITLQSYAMGWYRQAPGKERELVAAITSGSSTHYADSVKGRFTISRYNAKYTVYLQMYSLKPEDTAVYYCAADRVYFGDLFVVYYFIQYDFWGQGTQVTVSS | low polyreactivity |
| QVQLVESGGGLVQAGGSLRLSCAASGRTFYHYTMGWSSQAPGKERELVARITRRVGSTYYADSVKGRFTISRDNTKNTVYLQMNSLKPEDTAVYYCNAKSGVYRYLLDYWGQGTQVTVTS | high polyreactivity |
| QVQLVESGGGLVQAGGSLRLSCAASGYIFGVYVMGWYRQAPGKERELVAAITRGGGNTYYADSVKGRFTFSRDNAKNPVYLQMNSLKPEDTAVYYCAARSLKSLSRYYYWGQGTQVTVSS | high polyreactivity |
| QVQLVESGGGLVQAGGSLRLSCAASGRIFYYYAMGWYRQAPGKERELVAAITRRGGSTYYADSVKGRFTISRDNAKNTVYLQMNSLKPEDTAVYYCAKPDRTGWLDGDYWGQGTQVTVSS | low polyreactivity |
| QVQLVESGGGLVQAGGSLRLSCAASGSIYTHNAMGWSRQAPGKERELVAAISSGGSTNYADSVKGRFTISRDNAKNTVYLQMNSLKPEDTAVYYCAKSIDGWYWRRRRYDYWGQGTQVTVSS | low polyreactivity |
| QDKLVDSGGGLVQAGGSLRLSCAASGFIFGKYTMVWYRQAPGKERELVAAINRRGGSTYYADSVKGRFTISRDNAKNTVYLQMNSLKPEDTAVYYCAKDGYSLDRYYWGQGTQVTVSS | high polyreactivity |
